{
  "source": "patent US10663473B2",
  "about": "“Method of identifying a status of a mucosal intestinal epithelial barrier to improve treatment of inflammatory bowel disease” (Maximus Diagnostic Technologies LLC, priority 2016, dated 2020)",
  "origin": "cited, not measured here",
  "system": "IBD patients",
  "settings": "all CD patients",
  "data": [
    {"molecule": "certolizumab pegol: anti-TNF agent, trade name Cimzia, sold by UCB S.A. (antibody, chains of the INN, looked up, V domains shown, Fab' PEG) VH: EVQLVESGGGLVQPGGSLRLSCAASGYVFTDYGMNWVRQAPGKGLEWMGWINTYIGEPIYADSVKGRFTFSLDTSKSTAYLQMNSLRAEDTAVYYCARGYRSYAMDYWGQGTLVTVSS VL: DIQMTQSPSSLSASVGDRVTITCKASQNVGTNVAWYQQKPGKAPKALIYSASFLYSGVPYRFSGSGSGTDFTLTISSLQPEDFATYYCQQYNIYPLTFGQGTKVEIK", "values": [
      {"measurement": "long-term clinical response rate", "value": 50, "unit": "%"}
    ]}
  ]
}
